The values that follow come from article PMC4933465.

Some targets named below: Biotinylated CCL21 (UniProt O00585); CCL2 (UniProt P13500); CCL7 (UniProt P80098).
Assay [1] concerns the target Link_TSG6 (recombinant Link module from human TSG-6) (human) (UniProt P98066). As to the kind of experiment: SPR; Link_TSG6 amine-coupled to a C1 chip (800–1000 RU), chemokine as analyte; BIAcore 3000; 10 mM HEPES, 150 mM NaCl, 0.05% Tween 20, pH 7.4; 40 μl/min; 1:1 Langmuir model; apparent affinities. A general note: In SPR one partner is held on a chip, and binding of the other changes the refractive index at the surface.

Sequence of Link_TSG6 (recombinant Link module from human TSG-6) (human) (P98066 36-133): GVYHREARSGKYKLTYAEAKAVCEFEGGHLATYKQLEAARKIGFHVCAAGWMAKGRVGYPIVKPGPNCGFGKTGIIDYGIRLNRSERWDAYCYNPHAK
Sequence of Link_TSG6 (recombinant Link module from human TSG-6) (P98066 36-133): as above
Sequence of CCL7 (P80098 24-99): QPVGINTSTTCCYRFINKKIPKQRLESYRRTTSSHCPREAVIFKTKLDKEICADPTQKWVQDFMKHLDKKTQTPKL
Sequence of Biotinylated CCL21 (O00585 24-134): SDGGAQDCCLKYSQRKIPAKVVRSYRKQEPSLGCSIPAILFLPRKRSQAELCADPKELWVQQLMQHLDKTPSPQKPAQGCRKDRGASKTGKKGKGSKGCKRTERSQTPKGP
Sequence of CCL2 (P13500 24-99): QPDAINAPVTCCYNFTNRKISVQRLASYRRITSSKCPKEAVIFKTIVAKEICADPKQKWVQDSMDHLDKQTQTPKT

On to CXCL4 (ligand), for which, in assay [1], the Kd came out at 3.9 nM, the koff worked out at 0.0014 s⁻¹ and the kon was 360000 M⁻¹ s⁻¹.

“Link_TSG6 (recombinant Link module from human TSG-6) (from UniProt P98066 36-133) (domain or fragment)”: in the assay with Biotinylated CCL21, the accumulation of biotinylated CCL21 (50 nM) on EaHY926 endothelial cells after pre-incubation with Link TSG6 at a 1:1 molar ratio (% of chemokine alone) is 50. Besides, the accumulation of biotinylated CXCL4 (10 nM) on EaHY926 endothelial cells after pre-incubation with a 5-fold molar excess of Link TSG6 (% of chemokine alone) in the assay with Biotinylated CXCL4 stood at 51. Also, in the assay with CCL2, the accumulation of CCL2 (50 nM) on EaHY926 endothelial cells after pre-incubation with Link TSG6 at 1:1 to 5:1 molar ratio (∼75 to ∼55% of chemokine alone) (% of chemokine alone) was determined as 75. The accumulation of CCL7 (50 nM) on EaHY926 endothelial cells after pre-incubation with Link TSG6 at a 1:1 molar ratio (% of chemokine alone) with CCL7 was 50.

One may read the koff as a measure of how fast the partners let go of each other. One may read the kon as a measure of how fast the partners come together.
